Common to all, as to format: cell-based, human
Assay [1] concerns DU145 cells. Description: RNASE4 knockdown, colony formation in soft agar. As to conditions: DU145, exogenous RNASE4 1 μg/ml, 14 days. The source says:
FIGS. 14A-D. RNASE4 knockdown inhibits DU145 cell proliferation in vitro and colony formation in soft agar. (A) Immunoblot analysis of RNASE4 in DU145 cells stably transfected with shControl, shRNASE4-1, and shRNASE4-2. (B) qRT-PCR analysis of RNASE4 mRNA normalized to GAPDH in DU145 cells stably transfected with shControl, shRNASE4-1, and shRNASE4-2. (C) Effect of RNASE4 knockdown on cell proliferation. Cell numbers were counted by Coulter counter. Exogenous RNASE4, when presented, was at the concentration of 1 μg/ml. Data shown are from a representative experiment in triplicates of 3 independent experiments. (D) Effects of RNASE4 knockdown on colonies formation and growth of DU145 cells in soft agar. The same numbers of control and RNASE4 knockdown cells were seeded in soft agar, and grown in the absence or presence of 1 μg/ml of RNASE4 for 14 days. Colonies were counted and size measured on a Nikon Eclipse ti microscope. Top panels, representative images of colonies; scale bars=100 μm. Bottom panels, quantification of DU145 cell colonies and sizes in soft agar. Data shown are means±SEM of five randomly selected fields per dish from a representative experiment. **P≤0.01 and ***P≤0.001, by two-tailed Student's t test.
(§1) Lentiviral mediated shRNA system (pGIPZ, Open Biosystems) was used to generate control and RNASE4 knockdown cell lines. […]

In assay [2] the test system is DU145 cells. Description: RNASE4-induced cell proliferation (MTT assay). The following applies: exogenous RNASE4 1 μg/ml, DU145, 2% FBS. On the procedure:
FIGS. 10A-E. RNASE4 induces prostate cancer cell proliferation and phosphorylation of AKT and S6. (A and B) Exogenous RNASE4 (1 μg/ml) stimulates cell proliferation (A) and cell cycle progression (B) of DU145 cells cultured in the presence of 2% FBS. Cell numbers were determined by MTT assay. Cell cycle status was determined by flow cytometry after 24 hour incubation with RNASE4. (C) Time course of AKT and S6 phosphorylation of serum-starved DU145 cells by RNASE4 (1 μg/ml). Left panels, immunoblots; right panels, quantification of p-AKT and p-S6 normalized to total AKT and S6 by Image J analysis. […] Cells were pre-incubated with the inhibitors at the indicated concentrations for 1 hour prior to be stimulated by 1 μg/ml of RNASE4 for 5 minutes. Top panels, immunoblots; bottom panels, Image J quantification of p-AKT and p-S6 normalized to total AKT and S6. (E) Effect of AKT inhibitor MK-2206, PI3K inhibitors Wortmannin and LY294002, and mTOR inhibitor Rapamycin on RNASE4-induced cell proliferation. DU145 cells were serum-starved overnight, incubated with the inhibitors for 1 hour, and then treated with RNASE4 (1 μg/ml) for three days. Cell numbers were determined by MTT assay. Data shown are from a representative experiments in triplicates of 3 independent repeats. Error bars indicate SEM. **P≤0.01, by unpaired two-tailed Student's t test.
FIGS. 12A-F. RNASE4 induces AXL phosphorylation. (A) Human phospho-receptor tyrosine kinase (RTK) antibody array analysis. Serum-starved DU145 cells were treated with or without 1 μg/ml of RNASE4 for 5 minutes. […] Cell lysates were analyzed by antibodies against total AXL and phospho-AXL, with β-actin as the loading control. Left panels, immunoblots; right panel, Image J quantification of p-AXL normalized to total AXL. […] Left panels, immunoblots; right panel, quantification. […] Cell numbers were determined by MTT assay. […] Cell lysates were analyzed for AKT and P6 phosphorylation by immunoblotting. Top panels, immunoblots; bottom panels, quantification of phospho-AKT and phospho-S6 by Image J analyses normalized to total AKT and P6, respectively. […]
For orientation: Tetrazolium dyes change colour on reduction, which living cells bring about.

The test system of assay [3] is PC-3 cells. Kind of assay: RNASE4 knockdown, cell proliferation (Coulter counter). The following applies: PC-3, exogenous RNASE4 1 μg/ml.
Description: FIGS. 13A-D. RNASE4 knockdown reduces prostate cancer cell proliferation in vitro and colony formation in soft agar. (A) Immunoblot analysis of RNASE4 in PC-3 cells stably transfected with shControl, shRNASE4-1, and shRNASE4-2. (B) qRT-PCR analysis of RNASE4 mRNA normalized to GAPDH in PC-3 cells stably transfected with shControl, shRNASE4-1, and shRNASE4-2. (C) Effect of RNASE4 knockdown on cell proliferation. Cell numbers were counted by a Coulter counter. Exogenous RNASE4, when presented, was at the concentration of 1 μg/ml. Data shown are from representative experiment (in triplicates) of 3 independent repeats. (D) Effects of RNASE4 knockdown on colonies formation and growth of PC-3 cells in soft agar. The same numbers of control and RNASE4 knockdown cells were seeded in soft agar, and grown in the absence or presence of 1 μg/ml of RNASE4 for 14 days. Colonies were counted and size measured on a Nikon Eclipse ti microscope. Left panels, representative images of colonies; scale bars=100 μm. Right panels, quantification of colony numbers and sizes. Data shown are means±SEM from five randomly selected fields per dish from a representative experiment. *P≤0.05, **P≤0.01, and ***P≤0.001, by two-tailed Student's t test.
as §1

B1: RNASE4: recombinant human RNASE4 protein from pET11 expression in E. coli, purified by reversed-phase HPLC; added exogenously (protein, UniProt P34096 29-147, looked up)
Ribonuclease 4: QDGMYQRFLRQHVHPEETGGSDRYCNLMMQRRKMTLYHCKRFNTFIHEDIWNIRSICSTTNIQCKNGKMNCHEGVVKVTDCRDTGSSRAPNCRYRAIASTRRVVIACEGNPQVPVHFDG
Regarding B1, the “rescue of the effect of RNASE4 knockdown on colony formation” value in assay [1] is “able to rescue”. Moreover, in assay [2], the cell proliferation result was “stimulates”. Moreover, the “rescue of the effect of RNASE4 knockdown on cell proliferation” value in assay [3] was “able to rescue”.
